Data from US20080261241A1, “Targeted ubiquitination of proteins and screening methods using a new class of ubiquitin ligase proteins” (INSTITUT PASTEUR, priority 2007, published 2008).

Experiments:
[1] = tested on: MAPKK Ste7; experiment: Immunoblot of Ste7 amount in yeast; type: cell-based, Saccharomyces cerevisiae
[2] = tested on: HA-tagged ubiquitin; experiment: In vitro polyubiquitination of ubiquitin; type: biochemical; conditions: K48R and K63R ubiquitin variants
Protocol: (§1) Ubiquitin biotinylated on Lys residues can not support polyubiquitination reactions. To test if IpaH9.8 could polyubiquitinate proteins, reactions were performed using HA-tagged ubiquitin, instead of biotinylated ubiquitin.
(§2) Reactions were incubated at 37° C. for 1 h and stopped by the addition of an equal volume of Laemmli sample buffer (62.5 mM Tris-Hcl, pH 6.8, 10% glycerol, 2% SDS, 0.0005% bromophenol blue) containing, or not, 100 mM DTT. Ubiquitination reactions were carried out in the same manner except that 2 μg of HA-tagged ubiquitin, ubiquitin, ubiquitin-48R or […] were used instead of biotinylated ubiquitin. […] Reaction mixtures were separated by SDS/PAGE, transferred onto a nitrocellulose membrane and probed with specific antibodies or peroxidase-coupled streptavidin when biotinylated ubiquitin was used.

[3] = biological target: T1, HA-tagged ubiquitin (Homo sapiens, UniProt P0CG47); experiment: In vitro polyubiquitination of ubiquitin; type: biochemical; conditions: HA-ubiquitin, E1, UbcH5B; anti-HA antibodies
T1 construct: multiples of the size of HA-ubiquitin (9 kDa); purchased Boston Biochem
Protocol: as §1, §2

[4] = biological target: T2, ubiquitin (Homo sapiens, UniProt P0CG47); experiment: In vitro autoubiquitination; type: biochemical; conditions: E1, UbcH5B
T2 construct: UbcH7, E1, ubiquitin, HA-ubiquitin, biotinylated ubiquitin, ubiquitin-K48R and -K63R; purchased Boston Biochem
Protocol: The amide linkage, but not the thioesther linkage, of ubiquitin to ubiquitinated proteins is resistant to dithiothreitol (DTT).
(§3) Thus, IpaH9.8 is an E3 ubiquitin ligase for Ste7; the proteasome-dependent disappearance of Ste7 in yeast was likely due to the degradation of Ste7 following its polyubiquitination by IpaH9.8 and IpaH7.8.
as §2

[5] = tested on: pheromone response pathway downstream of Ste4; experiment: Growth arrest by overproduction of Ste4; type: cell-based, Saccharomyces cerevisiae
[6] = tested on: sst2Δ cells; experiment: Growth of sst2Δ yeast in the presence of pheromone; type: cell-based, Saccharomyces cerevisiae; conditions: galactose-induced production, α-factor plates
[7] = tested on: pheromone response pathway at or downstream of Ste11; experiment: FUS1-HIS3 reporter growth of strain SY2625 with Ste11-4; type: cell-based, Saccharomyces cerevisiae; conditions: SY2625 with plasmid encoding Ste11-4; medium lacking histidine with 3-amino triazole
From the text: To identify the target of IpaH9.8, yeast strains were used that were altered in the signalling cascade. […] The constitutively active variant of the MAPKKK Ste11 encoded by the allele STE11-4 promotes elevated transcription of pheromone responsive genes, even in the absence of pheromone (Stevenson et al., 1992). Growth of the strain SY2625 harbouring a FUS1-HIS3 pheromone-inducible reporter is dependent on signalling through the pheromone response pathway on a medium lacking histidine and containing 3-amino triazole (Evangelista et al., 1997). SY2625 containing a plasmid encoding Ste11-4, but not those containing the vector, were His^+, consistent with activation of the pathway by Ste11-4 and transcription of FUS1-HIS3. […] Upon phosphorylation by Ste11, Ste7 is ubiquitinated and, following removal of ubiquitin chains by the specific deubiquitinase Ubp3, is degraded by the proteasome (Wang et al., 2003).

[8] = biological target: T3, Ste7 (Saccharomyces cerevisiae, UniProt P06784); experiment: In vitro ubiquitination of Ste7; type: biochemical; conditions: Ste7, Ste11-4, Kss1 complexes, native ubiquitin, E1, UbcH5B; anti-Ste7 antibodies
T3 construct: made in house
T3 sequence (P06784 1-515): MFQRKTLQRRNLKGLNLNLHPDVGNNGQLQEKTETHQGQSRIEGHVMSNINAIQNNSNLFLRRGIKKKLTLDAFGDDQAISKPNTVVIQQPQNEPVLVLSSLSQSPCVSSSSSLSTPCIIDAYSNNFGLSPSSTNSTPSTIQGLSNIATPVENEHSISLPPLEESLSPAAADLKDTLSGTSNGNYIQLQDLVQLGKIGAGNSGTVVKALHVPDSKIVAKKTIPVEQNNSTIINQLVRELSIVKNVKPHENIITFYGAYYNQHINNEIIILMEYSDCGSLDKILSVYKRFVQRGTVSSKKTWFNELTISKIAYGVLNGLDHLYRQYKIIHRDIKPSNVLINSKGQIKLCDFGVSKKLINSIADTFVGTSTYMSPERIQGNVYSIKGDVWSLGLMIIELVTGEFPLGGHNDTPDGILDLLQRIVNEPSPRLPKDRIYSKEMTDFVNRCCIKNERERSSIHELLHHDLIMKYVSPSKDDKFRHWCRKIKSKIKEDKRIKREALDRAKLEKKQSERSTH
Protocol: as §3, §2

[9] = tested on: pheromone response MAPK pathway; experiment: Pheromone-responsive FUS1-lacZ reporter (β-galactosidase); type: cell-based, Saccharomyces cerevisiae; conditions: wild-type yeast, exposure to α-factor
From the text: (§4) To gain insight to IpaH9.8 activity, Saccharomyces cerevisiae was employed as a surrogate model. […] Detection of mating pheromone by a G protein-coupled receptor activates an archetypal MAPK signalling cascade, inducing both arrest of the cell cycle and transcription of mating genes. The pheromone α-factor diffusing from a disk causes cell cycle arrest in […] cells, resulting in a halo of inhibited growth (Hoffman et al., 2002).
Invasive wild-type Shigella flexneri 5 M90T-Sm (Allaoui et al., 1992) and its mxiE derivative SF1060 (Mavris et al., 2002) were used for infection. Plasmids were propagated in Escherichia coli DH5α (end A1 hsdR17 sup E44 thi1 recA1 gyrA relA1 lacZYA-argF). To create JRY101, the integrating plasmid pFC23 (O'Rourke and Herskowitz, 1998) containing a FUS-lacZ transcriptional fusion was digested with SphI and transformed into BY4741; Leu+ colonies were tested for pheromone-responsive β-galactosidase production. JRY100 was constructed by PCR-mediated gene disruption in strain BY4741, replacing the entire open reading frame of UBP3 by the Nat marker, as described (Goldstein and McCusker, 1999; Longtine et al., 1998); the gene replacement was confirmed by PCR.
Standard media and techniques were used for transformation, maintenance, and growth of yeast (Guthrie C, 1991). […]

[10] = biological target: T4, UbcH5B (Homo sapiens, UniProt P62837); experiment: In vitro removal of ubiquitin from ubiquitinated E2; type: biochemical; conditions: biotinylated ubiquitin, E1, UbcH5B
T4 construct: His; made in house
T4 sequence (P62837 whole entry): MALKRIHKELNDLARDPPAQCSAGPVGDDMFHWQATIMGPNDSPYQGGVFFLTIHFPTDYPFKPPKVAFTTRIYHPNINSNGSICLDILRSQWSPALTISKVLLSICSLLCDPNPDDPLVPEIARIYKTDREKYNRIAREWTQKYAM
Protocol: The observation that the degradation of Ste7 promoted by IpaH9.8 is proteasome-dependent led us to test in vitro if IpaH9.8 might be involved in an ubiquitination pathway. It was discovered that the E2 enzyme UbcH5B was apparently not ubiquitinated by E1 in the presence of GST-IpaH9.8 (FIG. 2B).
as §2

[11] = tested on: pheromone response MAPK pathway; experiment: Halo assay with α-factor disk; type: cell-based, Saccharomyces cerevisiae; conditions: wild-type yeast, exposure to α-factor
From the text: as §4
Standard media and techniques were used for transformation, maintenance, and growth of yeast (Guthrie C, 1991). Halo assays were performed as described (Hoffman et al., 2002) using disks impregnated with 15 μg of α-factor. erg6 ? yeast were transformed with plasmids encoding IpaH9.8 or IpaH9.8-C337A and grown in selective media containing 1% raffinose to mid log phase. Following addition of MG132 (100 μM) and galactose (2%), cultures were incubated for 2 h and cell extracts were prepared as described (Wang et al., 2003). β-Galactosidase assays were performed as described (Guarente, 1983).

[12] = biological target: T5, PKN1 (Homo sapiens, UniProt Q16512); experiment: In vitro ubiquitination of PKN1; type: biochemical, mammalian; conditions: GST-PKN1, E1, native ubiquitin, UbcH5B; anti-PKN1 antibodies
T5 construct: purchased Invitrogen
T5 sequence (Q16512 whole entry): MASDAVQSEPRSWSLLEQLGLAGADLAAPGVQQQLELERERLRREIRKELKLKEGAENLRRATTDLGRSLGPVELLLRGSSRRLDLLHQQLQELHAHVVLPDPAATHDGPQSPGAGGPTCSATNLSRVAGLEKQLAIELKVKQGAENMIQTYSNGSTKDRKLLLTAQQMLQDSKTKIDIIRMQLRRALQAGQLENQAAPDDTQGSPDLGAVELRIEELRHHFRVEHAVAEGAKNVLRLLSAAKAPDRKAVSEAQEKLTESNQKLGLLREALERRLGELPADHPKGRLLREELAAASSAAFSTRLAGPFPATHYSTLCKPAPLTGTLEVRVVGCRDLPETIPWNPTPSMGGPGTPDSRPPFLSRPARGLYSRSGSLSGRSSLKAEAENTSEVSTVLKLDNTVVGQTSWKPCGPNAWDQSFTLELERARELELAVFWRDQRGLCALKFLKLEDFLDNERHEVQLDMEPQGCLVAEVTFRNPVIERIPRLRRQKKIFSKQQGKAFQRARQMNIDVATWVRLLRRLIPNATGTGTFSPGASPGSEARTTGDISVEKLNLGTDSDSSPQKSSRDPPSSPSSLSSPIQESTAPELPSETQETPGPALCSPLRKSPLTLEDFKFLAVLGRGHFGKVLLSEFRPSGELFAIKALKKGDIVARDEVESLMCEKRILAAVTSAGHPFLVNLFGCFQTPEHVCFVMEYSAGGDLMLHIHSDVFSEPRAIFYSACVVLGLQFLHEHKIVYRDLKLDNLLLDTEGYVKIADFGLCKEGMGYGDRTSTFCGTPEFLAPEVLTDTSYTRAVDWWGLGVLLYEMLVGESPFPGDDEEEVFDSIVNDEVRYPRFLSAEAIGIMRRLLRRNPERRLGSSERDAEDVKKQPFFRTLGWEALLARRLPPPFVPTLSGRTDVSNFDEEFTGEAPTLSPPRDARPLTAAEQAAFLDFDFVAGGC
Protocol: To test whether SspH1 shares activities with IpaH9.8, a GST-SspH1 recombinant protein was purified. […] Ubiquitination of PKN1 by SspH1; SspH1, IpaH9.8, or IpaH9.8-C337A was incubated with E1, native ubiquitin, UbcH5B, and GST-PKN1 was tested.
as §2

B1: IpaH9.8: Shigella flexneri type III secretion effector protein (SEQ ID NO: 4), E3 ubiquitin ligase; used FLAG-tagged in yeast, GST-fused in vitro (protein, listed as Shigella flexneri)
chain: MLPINNNFSLPQNSFYNTISGTYADYFSAWDKWEKQALPGEERDEAVSRLKECLINNSDELRLDRLNLSSLPDNLPAQITLLNVSYNQLTNLPELPVTLKKLYSASNKLSELPVLPPALESLQVQHNELENLPALPDSLLTMNISYNEIVSLPSLPQALKNLRATRNFLTELPAFSEGNNPVVREYFFDRNQISHIPESILNLRNECSIHISDNPLSSHALQALQRLTSSPDYHGPRIYFSMSDGQQNTLHRPLADAVTAWFPENKQSDVSQIWHAFEHEEHANTFSAFLDRLSDTVSARNTSGFREQVAAWLEKLSASAELRQQSFAVAADATESCEDRVALTWNNLRKTLLVHQASEGLFDNDTGALLSLGREMFRLEILEDIARDKVRTLHFVDEIEVYLAFQTMLAEKLQLSTAVKEMRFYGVSGVTANDLRTAEAMVRSREENEFTDWFSLWGPWHAVLKRTEADRWAQAEEQKYEMLENEYPQRVADRLKASGLSGDADAEREAGAQVMRETEQQIYRQLTDEVLALRLSENGSQLHHS
modifications: FLAG tag or GST fusion
notes: used FLAG-tagged in yeast, GST-fused in vitro
disappearance of Ste7 ([1]; ubp3Δ and ste11Δ cells): still resulted in the disappearance of Ste7 | amount of Ste7 ([1]; wild-type yeast, regardless of stimulation by α-factor): drastically reduced | linkage of polyubiquitin chains [2]: catalyzed the formation of polyubiquitin chains on Lys-48, but not Lys-63 | polyubiquitination of HA-tagged ubiquitin [3]: detected a ladder of ubiquitinated proteins | autoubiquitination (DTT-resistant ubiquitinated protein) ([4]; biotinylated ubiquitin): a DTT-resistant ubiquitinated protein of the size of GST-IpaH9.8 (FIG. 3) was detected | autoubiquitination (anti-IpaH antibodies) ([4]; native ubiquitin, MAPK complexes): Both the non- and mono-ubiquitinated forms of IpaH9.8 were detected | rescue of growth arrest [5]: rescued this phenotype | growth of sst2Δ cells in the presence of pheromone [6]: allowed sst2Δ cells to grow in the presence of pheromone | His phenotype (FUS1-HIS3 reporter) [7]: His^− | ubiquitination of Ste7 [8]: larger species that formed only in the presence of IpaH9.8 were detected | expression of FUS1-lacZ reporter gene [9]: failed to form a halo and to induce expression | removal of ubiquitin from ubiquitinated UbcH5B [10]: promoted the removal of ubiquitin from UbcH5B | halo of inhibited growth [11]: failed to form a halo

B2: SspH1: Salmonella enterica Typhimurium homologue of IpaH, type III secretion effector; GST-SspH1 recombinant protein (protein)
chain: EFMLPINNNFSLPQNSFYNTISGTYADYFSAWDKWEKQALPGEERDEAVSRLKECLINNSDELRLDRLNLSSLPDNLPAQITLLNVSYNQLTNLPELPVTLKKLYSASNKLSELPVLPPALESLQVQHNELENLPALPDSLLTMNISYNEIVSLPSLPQALKNLRATRNFLTELPAFSEGNNPVVREYFFDRNQISHIPESILNLRNECSIHISDNPLSSHALQALQRLTSSPDYHGPRIYFSMSDGQQNTLHRPLADAVTAWFPENKQSDVSQIWHAFEHEEHANTFSAFLDRLSDTVSARNTSGFREQVAAWLEKLSASAELRQQSFAVAADATESCEDRVALTWNNLRKTLLVHQASEGLFDNDTGALLSLGREMFRLEILEDIARDKVRTLHFVDEIEVYLAFQTMLAEKLQLSTAVKEMRFYGVSGVTANDLRTAEAMVRSREENEFTDWFSLWGPWHAVLKRTEADRWAQAEEQKYEMLENEYPQRVADRLKASGLSGDADAEREAGAQVMRETEQQIYRQLTDEVLALRLFENGSQLHHS
modifications: left off: a dimerising Fc or GST
ubiquitination of PKN1 [12]: detected an additional species migrating at a size >250 kDa
